Experimental data from patent US20210363241A1 (Eli Lilly, published 2021).

What was measured:
[1] = molecular target: T1, Cynomolgus monkey CD226 on the cell surface of stably transfected HEK 293 cells (cynomolgus monkey, UniProt A0A2K5W1Z6 19-336); assay: flow cytometry on HEK 293 cells expressing cynomolgus CD226, antibody at 0.14 ug/mL
T1 construct: whole, on cells; also called Cyno-CD226
T1 sequence: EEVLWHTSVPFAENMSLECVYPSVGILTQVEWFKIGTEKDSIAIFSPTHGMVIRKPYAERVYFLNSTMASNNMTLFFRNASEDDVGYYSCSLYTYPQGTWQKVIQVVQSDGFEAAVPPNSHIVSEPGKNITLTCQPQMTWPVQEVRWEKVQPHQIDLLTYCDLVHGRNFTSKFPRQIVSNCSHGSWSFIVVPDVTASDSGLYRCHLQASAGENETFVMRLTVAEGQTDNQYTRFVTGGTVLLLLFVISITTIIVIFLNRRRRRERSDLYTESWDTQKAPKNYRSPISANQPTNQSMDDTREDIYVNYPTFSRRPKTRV
Description: (§1) The ability of the antibodies disclosed herein to bind to cell surface cynomolgus monkey CD226 can be measured using a flow cytometric assay. Cynomolgus monkey CD226 expressing stable cells are generated by transfecting Cyno-CD226 plasmid DNA into human HEK 293 cells (ATCC) using Fugene-6 reagent (Promega) according to the manufacturer's protocol. Stable cells are selected using 0.5 μg/mL puromycin in Dulbecoo's Modified Eagle's Medium containing 10% fetal bovine serum and 1% GlutaMAX™. For flow cytometry, confluent adherent cells are detached using Gibco® Cell Dissociation Buffer (Life Technologies), washed with complete media, then resuspend in FACS buffer (phosphate buffered saline containing 2.5% fetal bovine serum+1 mM EDTA) and then transferred into a 96 well V bottom plate at a density of 5×10⁴ cells/well. […]
(§2) After washing in FACS buffer, secondary antibody allophycocyanin (APC) conjugated goat anti-human IgG, F(ab′)2 fragment specific antibody (Jackson ImmunoResearch Laboratories) is added at a 1:200 dilution and cells are incubated at room temperature for 30 minutes. […] Flow cytometry data is analyzed using FlowJo® Software. Median fluorescence intensity (MFI) ratio is calculated as the (MFI of Experimental antibody)/(MFI of the control IgG).

[2] = molecular target: T2, Human CD226 on the cell surface of stably transfected HEK 293 cells (human, UniProt Q15762 19-336); assay: flow cytometry on HEK 293 cells expressing human CD226, antibody at 0.14 ug/mL
T2 construct: also called hCD226; DNAM-1
T2 sequence: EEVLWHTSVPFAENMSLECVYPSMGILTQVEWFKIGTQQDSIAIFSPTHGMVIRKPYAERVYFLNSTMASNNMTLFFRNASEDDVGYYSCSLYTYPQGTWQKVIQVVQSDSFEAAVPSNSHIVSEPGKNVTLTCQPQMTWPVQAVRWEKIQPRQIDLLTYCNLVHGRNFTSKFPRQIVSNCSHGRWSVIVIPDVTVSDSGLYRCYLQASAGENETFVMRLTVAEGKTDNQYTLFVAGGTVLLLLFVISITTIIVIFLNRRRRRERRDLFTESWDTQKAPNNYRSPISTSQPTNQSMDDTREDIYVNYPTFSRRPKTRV
Description: as §1, with “Human” for “cynomolgus monkey”, “Human” for “Cynomolgus monkey”, “human-CD226” for “Cyno-CD226”
as §2

[3] = molecular target: T3, Recombinant human CD226-Fc fusion protein (R&D Systems) (human); assay: SPR (Biacore T200), human CD226-Fc amine-coupled to chip, antibody injected at 1.95-1000 nM, 25 C, steady state fit
T3 construct: The reagent was bought from R&D Systems; also called Human CD226-ECD-Fc; Human CD226-Extracellular Domain-Fc
Description: A Biacore T200 instrument can be used to measure the kinetics of immobilized human CD226-Fc binding to Antibody 1. Recombinant human CD226-Fc fusion protein (R&D Systems) is covalently immobilized to a CMS sensor chip via amine coupling (GE Healthcare). CD226 antibody testing is performed at a flow rate of 100 μL/min in HBS-EP+buffer. Samples are injected at various concentrations and measurements obtained at 25° C. The surface is regenerated after each sample injection with 10 mM Glycine-HCl pH 2.1 at flow rate of 10 μL/min for 30 seconds and then stabilized with buffer for 10 seconds. Sensorgrams of concentrations ranging from 1.95 nM to 1000 nM are evaluated using Biacore T200 software. The equilibrium dissociation constant (KD) or binding affinity constant is calculated from steady state fit. In experiments performed essentially as described above, Antibody 1 binds to human CD226 with the affinity constants illustrated in Table 2.

[4] = molecular target: T2, Human CD226 on the cell surface of …; assay: cell-based or functional assay
[5] = molecular target: T3, Recombinant human CD226-Fc fusion …; assay: ELISA, plate coated with human CD226-Fc, anti-human F(ab')2-HRP detection
Description: The ability of the antibodies disclosed herein to bind human CD226 can be measured by ELISA. To measure binding to human CD226, a 96-well plate (Immulon 2HB) is coated with human CD226-Fc (R&D Systems) overnight at 4° C. Wells are blocked for 2 h with blocking buffer (PBS containing 1% bovine serum albumin). Wells are washed three times with PBS containing 0.1% Tween-20. Antibody 1 or control IgG (100 μL) is then added at different concentrations and incubated at room temperature for 1 h. After washing, the plate is incubated with 100 μL of goat anti-human IgG F(ab′)2-HRP conjugate (Jackson Immuno Research Laboratories) at room temperature for 45 minutes. The plates are washed and then incubated with 100 μL of 3,3′, 5,5′-tetra-methylbenzidine. The absorbance at 450 nm is read on a SpectraMax® microplate reader. The half maximal effective concentration (EC50) is calculated using GraphPad Prism 7 software.

B1: Antibody 1 (antibody, human IgG1, kappa, V domains shown)
VH: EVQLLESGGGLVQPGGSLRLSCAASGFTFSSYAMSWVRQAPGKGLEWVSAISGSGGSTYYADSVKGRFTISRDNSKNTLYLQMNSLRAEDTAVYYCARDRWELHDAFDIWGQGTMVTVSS
VL: VIWMTQSPSSLSASVGDRVTITCRASQSISSYLNWYQQKPGKAPRLLIYRASTLQSGVPSRFSGDGSGTHFTLTISSLQPEDFATYYCQQSYSTPDTFGQGTKVEIKR
notes: also called anti-human CD226 agonist antibody; human anti-human CD226 IgG1-effector null (IgG1-EN) antibody
[1]
  MFI ratio (MFI of antibody / MFI of control IgG): 2920
[2]
  MFI ratio (MFI of antibody / MFI of control IgG): 851
[3]
  Kd: 334 nM
[4]
  NF-kB luciferase reporter EC50: 4.11 nM
[5]
  EC50: 0.1 nM
